Data published in publication PMC11410670, “Growth of complete ammonia oxidizers on guanidine” (Nature, 2024).

Key:
[1] = target: Nitrospira inopinata guanidinase (Nitrospira inopinata); assay: SEC-MALS; Superdex 200 Increase 10/300 GL, 20 °C, 20 mM HEPES, 150 mM NaCl, pH 7.4; 80 µl injected at 1 mg/ml; hexamer in solution
[2] = substrate: N=C(N)N; assay: urea production, thiosemicarbazide-diacetylmonoxime colorimetry, Michaelis-Menten fit; assay type: biochemical, Candidatus Nitrospira inopinata; conditions: pH 7.5, 37 °C, 20 mM Tris-HCl, 50 mM NaCl, enzyme expressed with 1 mM NiSO4 and assayed with 1 mM Ni2+

Row | stoichiometry N [1] | Molecule | Km [2] [mM]
1 | 6 | Nitrospira inopinata guanidinase (enzyme) | –
2 | – | N. inopinata guanidinase (Candidatus Nitrospira inopinata) (protein, full-length, N-terminal His6-MBP tag (pCoofy4) cleaved with HRV-3C; E. coli; homohexamer 240 kDa; Ni/Mn; N-terminus from primer MAKKRTY; residues T105, H182, D207, H209, D211, H222, D299, D301, W313, E344) MAKKRTYQGKVPLHDNYGPEAKYAVEAEALLPTTKFEEEIARGLELGLPGADSIKDRRIPTFSRGELPHFAGINTFIKAPYVEDVRKCGQYDVAILGAPFDGGTTYRAGTRFGPQGIRKISALYGTYSFELGVDLRESVSICDVGDIFTIPGNIEKTFDQVSKGVGHVFASGAFPVVLGGDHSLGFATVRGVAQHLNGKKLGILHFDRHVDTQDTDLDERMHTTPWFHATNIPNVPAKNLVQIGIGGWQAPRPGVKAGRERQTTIMTVTDCVEMGIENAAKQALEVAFDGVDAVWLSFDVDCLDAAFVPGTGWPEPGGFLPREVLKFLQIIADTKPLAGMEIVECAPPYDAAEITSLMATRVICDVLACQVRSGHLGNRKKR | 13.6 ± 0.76
